Reference: patent US20260275312, “CRISPR NUCLEASE POLYPEPTIDES AND GENE EDITING SYSTEMS COMPRISING SUCH” (ARBOR BIOTECHNOLOGIES, INC., published 2026)
Positions count from the first letter of the chain named.

Experiments:
Nuclease S D844R = target: T1, Nuclease S D844R (synthetic construct, D844R); test: cell_activity; HEK293T; PAM AACC; settings: tags: N-term SV40 NLS, XTEN linker + C-term nucleoplasmin NLS
T1 chain: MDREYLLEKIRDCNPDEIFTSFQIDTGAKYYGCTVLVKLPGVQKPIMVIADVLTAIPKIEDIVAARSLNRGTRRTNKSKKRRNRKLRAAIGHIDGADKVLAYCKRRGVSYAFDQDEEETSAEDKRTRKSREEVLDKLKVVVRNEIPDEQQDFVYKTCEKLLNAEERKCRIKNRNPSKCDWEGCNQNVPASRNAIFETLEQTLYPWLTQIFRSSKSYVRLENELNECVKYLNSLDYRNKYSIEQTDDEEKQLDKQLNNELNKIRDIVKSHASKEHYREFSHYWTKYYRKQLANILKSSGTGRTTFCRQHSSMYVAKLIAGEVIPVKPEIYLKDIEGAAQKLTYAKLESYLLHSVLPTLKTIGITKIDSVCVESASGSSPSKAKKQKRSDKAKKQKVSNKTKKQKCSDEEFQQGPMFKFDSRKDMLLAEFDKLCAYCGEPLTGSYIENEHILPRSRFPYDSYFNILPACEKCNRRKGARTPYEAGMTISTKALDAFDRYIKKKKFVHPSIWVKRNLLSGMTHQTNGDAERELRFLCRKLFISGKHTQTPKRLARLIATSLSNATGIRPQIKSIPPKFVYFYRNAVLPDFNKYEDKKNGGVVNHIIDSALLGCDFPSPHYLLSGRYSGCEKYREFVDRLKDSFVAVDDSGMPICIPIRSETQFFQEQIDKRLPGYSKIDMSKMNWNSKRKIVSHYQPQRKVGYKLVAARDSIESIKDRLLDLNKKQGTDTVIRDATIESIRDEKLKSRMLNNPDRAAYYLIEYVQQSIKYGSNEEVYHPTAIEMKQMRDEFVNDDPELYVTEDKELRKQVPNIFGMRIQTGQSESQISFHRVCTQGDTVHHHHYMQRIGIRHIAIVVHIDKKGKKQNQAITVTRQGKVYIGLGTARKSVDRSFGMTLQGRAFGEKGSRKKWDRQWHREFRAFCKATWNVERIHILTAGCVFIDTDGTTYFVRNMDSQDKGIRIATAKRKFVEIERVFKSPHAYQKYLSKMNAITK
Procedure: (§1) HEK293T cells were transfected with plasmids expressing the Nuclease S polypeptides and the gRNAs provided herein following the methods provided in Example 1 above. Gene editing efficiencies were determined by NGS following the methods also provided in Example 1. The NGS results were analyzed also following the methods provided in Example 1 above.
(§2) For each target, indel ratios, referring to the percentage of NGS reads comprising indels, were calculated for the reference and for each variant. The indel ratios used for fold change calculations were the average of two technical replicates. To then calculate fold change in indel ratios at a particular target, the indel ratio for each variant was divided by the indel ratio for the reference. […] Numbering is relative to the reference nuclease of SEQ ID NO: 49 (i.e., without an NLS). […] The average fold change in indel ratio for the D844R variant at all targets was 5.27 times that of the indel ratio for the reference at all targets.

Nuclease S D179R = target: T2, Nuclease S D179R (synthetic construct, D179R); test: cell_activity; HEK293T; PAM AACC; settings: tags: N-term SV40 NLS, XTEN linker + C-term nucleoplasmin NLS
T2 chain: T1 chain with D179R, R844D
Procedure: as §1, §2

B1: S AAVS1-T7 RNA guide ; AAVS1-T7 target (S) (ssRNA ; dsDNA)
RNA: GGCUAUAAUCCAUGCUGACCGUUGUAUUCGGAUGGGAGUAAAAGGUUGAGUACACCUGGAAACAAAACGACAUAAAGGUGUUCUCCCAUCUGUGUACAAAGAGCAGAUAUAUGAGUUGAUAAGUAAUAUGUUGCACGUAUGGACUUUGACAGUCUGUACCUCUGCGUGAAAGACAUAUUGCGUUAUUCAUAUAUCUGUGAGUCUGUUCUAAAUUUAAAGGUUUAGGGAA
DNA 1: GGCTATAATCCATGCTGACC
DNA 2: GGTCAGCATGGATTATAGCC
- fold change in indel ratio vs reference (Nuclease S D844R): 6.37 fold indel vs reference
- fold change in indel ratio vs reference (Nuclease S D179R): 6.38 fold indel vs reference
